The values below come from the FLAb antibody collection (doi:10.1101/2023.12.08.570889).

The experiment has as its target FXI. Nature of the experiment: Kd (SPR).

B1: unnamed (protein)
chain 1: EVQLLESGGGLVQPGGSLRLSCAASGFTFSQYGMDWVRQAPGKGLEWVSGIGPSGGSTVYADSVKGRFTISRDNSKNTLYLQMNSLRAEDTAVYYCTRDGSAYYYAFDYWGQGTTVTVSS
chain 2: DIQMTQSPSSLSASVGDRVTITCQASQDISNYLNWYQQKPGKAPKLLIYDASNLETGVPSRFSGSGSGTDFTFTISSLQPEDIATYYCQQADSFPVTFGGGTKVEIK
With B1, the Kd is 248 nM.

B2: unnamed (protein)
chain 1: EVQLLESGGGLVQPGGSLRLSCAASGFTFSQYGMDWVRQAPGKGLEWVSGIGPSGGSTVYADSVKGRFTISRDNSKNTLYLQMNSLRAEDTAVYYCTRGGPYYYYGMDVWGQGTTVTVSS
chain 2: DIQMTQSPSSLSASVGDRVTITCQASQDISNYLNWYQQKPGKAPKLLIYDASNLETGVPSRFSGSGSGTDFTFTISSLQPEDIATYYCQQADSFPVTFGGGTKVEIK
In turn, B2 showed a Kd of 102 nM.

B3: unnamed (protein)
chain 1: EVQLLESGGGLVQPGGSLRLSCAASGFTFSSYAMDWVRQAPGKGLEWVSGISSDGGSTVYADSVKGRFTISRDNSKNTLYLQMNSLRAEDTAVYYCARDGPSYYYAFDVWGQGTTVTVSS
chain 2: DIQMTQSPSSLSASVGDRVTITCQASQDISNYLNWYQQKPGKAPKLLIYDASNLETGVPSRFSGSGSGTDFTFTISSLQPEDIATYYCQQADSFPVTFGGGTKVEIK
On to B3, for which the Kd was 51.1 nM.

B4: unnamed (protein)
chain 1: EVQLLESGGGLVQPGGSLRLSCAASGFTFSSYAMDWVRQAPGKGLEWVSGISADGGSTVYADSVKGRFTISRDNSKNTLYLQMNSLRAEDTAVYYCTRGGPAYYYAFDYWGQGTTVTVSS
chain 2: DIQMTQSPSSLSASVGDRVTITCQASQDISNYLNWYQQKPGKAPKLLIYDASNLETGVPSRFSGSGSGTDFTFTISSLQPEDIATYYCQQADSFPVTFGGGTKVEIK
Consider B4, for which the dissociation constant Kd came to 707 nM.

B5: unnamed (protein)
chain 1: EVQLLESGGGLVQPGGSLRLSCAASGFTFSSYAMDWVRQAPGKGLEWVSGISYDGGSTVYADSVKGRFTISRDNSKNTLYLQMNSLRAEDTAVYYCARGGPAYYYAFDVWGQGTTVTVSS
chain 2: DIQMTQSPSSLSASVGDRVTITCQASQDISNYLNWYQQKPGKAPKLLIYDASNLETGVPSRFSGSGSGTDFTFTISSLQPEDIATYYCQQADSFPVTFGGGTKVEIK
In turn, B5 yielded a Kd of 702 nM.

B6: unnamed (protein)
chain 1: EVQLLESGGGLVQPGGSLRLSCAASGFTFSSYAMDWVRQAPGKGLEWVSGISGDGGSTVYADSVKGRFTISRDNSKNTLYLQMNSLRAEDTAVYYCTRGGPAYYYGFDVWGQGTTVTVSS
chain 2: DIQMTQSPSSLSASVGDRVTITCQASQDISNYLNWYQQKPGKAPKLLIYDASNLETGVPSRFSGSGSGTDFTFTISSLQPEDIATYYCQQADSFPVTFGGGTKVEIK
With B6, the Kd amounted to 546 nM.

B7: unnamed (protein)
chain 1: EVQLLESGGGLVQPGGSLRLSCAASGFTFSSYGMDWVRQAPGKGLEWVSGISSDGGSTVYADSVKGRFTISRDNSKNTLYLQMNSLRAEDTAVYYCTRDGPAYYYAFDVWGQGTTVTVSS
chain 2: DIQMTQSPSSLSASVGDRVTITCQASQDISNYLNWYQQKPGKAPKLLIYDASNLETGVPSRFSGSGSGTDFTFTISSLQPEDIATYYCQQADSFPVTFGGGTKVEIK
B7 registered a Kd of 58 nM.

B8: unnamed (protein)
chain 1: EVQLLESGGGLVQPGGSLRLSCAASGFTFSSYAMDWVRQAPGKGLEWVSGISSDGGSTVYADSVKGRFTISRDNSKNTLYLQMNSLRAEDTAVYYCTRDGPYYYYAFDVWGQGTTVTVSS
chain 2: DIQMTQSPSSLSASVGDRVTITCQASQDISNYLNWYQQKPGKAPKLLIYDASNLETGVPSRFSGSGSGTDFTFTISSLQPEDIATYYCQQADSFPVTFGGGTKVEIK
B8 registered a Kd of 693 nM.

B9: unnamed (protein)
chain 1: EVQLLESGGGLVQPGGSLRLSCAASGFTFSSYAMDWVRQAPGKGLEWVSGISGDGGSTVYADSVKGRFTISRDNSKNTLYLQMNSLRAEDTAVYYCTRGGPAYYYAFDYWGQGTTVTVSS
chain 2: DIQMTQSPSSLSASVGDRVTITCQASQDISNYLNWYQQKPGKAPKLLIYDASNLETGVPSRFSGSGSGTDFTFTISSLQPEDIATYYCQQADSFPVTFGGGTKVEIK
B9 returned a Kd of 857 nM.

B10: unnamed (protein)
chain 1: EVQLLESGGGLVQPGGSLRLSCAASGFTFSSYAMDWVRQAPGKGLEWVSGISADGGSTVYADSVKGRFTISRDNSKNTLYLQMNSLRAEDTAVYYCTRDGPAYYYGFDVWGQGTTVTVSS
chain 2: DIQMTQSPSSLSASVGDRVTITCQASQDISNYLNWYQQKPGKAPKLLIYDASNLETGVPSRFSGSGSGTDFTFTISSLQPEDIATYYCQQADSFPVTFGGGTKVEIK
In the case of B10, the Kd was 485 nM.

B11: unnamed (protein)
chain 1: EVQLLESGGGLVQPGGSLRLSCAASGFTFSSYGMDWVRQAPGKGLEWVSGISSDGGSTVYADSVKGRFTISRDNSKNTLYLQMNSLRAEDTAVYYCTRGGPAYYYAFDVWGQGTTVTVSS
chain 2: DIQMTQSPSSLSASVGDRVTITCQASQDISNYLNWYQQKPGKAPKLLIYDASNLETGVPSRFSGSGSGTDFTFTISSLQPEDIATYYCQQADSFPVTFGGGTKVEIK
B11 came in with a Kd of 293 nM.

B12: unnamed (protein)
chain 1: EVQLLESGGGLVQPGGSLRLSCAASGFTFSSYAMDWVRQAPGKGLEWVSGISSDGGSTVYADSVKGRFTISRDNSKNTLYLQMNSLRAEDTAVYYCARGGPAYYYGFDVWGQGTTVTVSS
chain 2: DIQMTQSPSSLSASVGDRVTITCQASQDISNYLNWYQQKPGKAPKLLIYDASNLETGVPSRFSGSGSGTDFTFTISSLQPEDIATYYCQQADSFPVTFGGGTKVEIK
On to B12, for which the Kd was 310 nM.

B13: unnamed (protein)
chain 1: EVQLLESGGGLVQPGGSLRLSCAASGFTFSQYGMDWVRQAPGKGLEWVSGIGPSGGSTVYADSVKGRFTISRDNSKNTLYLQMNSLRAEDTAVYYCARRGRYGLYAMDYWGQGTTVTVSS
chain 2: DIQMTQSPSSLSASVGDRVTITCQASQDISNYLNWYQQKPGKAPKLLIYDASNLETGVPSRFSGSGSGTDFTFTISSLQPEDIATYYCQQADSFPVTFGGGTKVEIK
B13 displayed a Kd of 2040 nM.

B14: unnamed (protein)
chain 1: EVQLLESGGGLVQPGGSLRLSCAASGFTFSSYAMDWVRQAPGKGLEWVSGISSDGGSTVYADSVKGRFTISRDNSKNTLYLQMNSLRAEDTAVYYCTRGGPYYYYAFDVWGQGTTVTVSS
chain 2: DIQMTQSPSSLSASVGDRVTITCQASQDISNYLNWYQQKPGKAPKLLIYDASNLETGVPSRFSGSGSGTDFTFTISSLQPEDIATYYCQQADSFPVTFGGGTKVEIK
B14 showed a Kd of 375 nM.

B15: unnamed (protein)
chain 1: EVQLLESGGGLVQPGGSLRLSCAASGFTFSSYGMDWVRQAPGKGLEWVSGISSDGGSTVYADSVKGRFTISRDNSKNTLYLQMNSLRAEDTAVYYCTRDGPSYYYAFDVWGQGTTVTVSS
chain 2: DIQMTQSPSSLSASVGDRVTITCQASQDISNYLNWYQQKPGKAPKLLIYDASNLETGVPSRFSGSGSGTDFTFTISSLQPEDIATYYCQQADSFPVTFGGGTKVEIK
On to B15, for which the Kd worked out at 80.9 nM.

B16: unnamed (protein)
chain 1: EVQLLESGGGLVQPGGSLRLSCAASGFTFSSYAMDWVRQAPGKGLEWVSGISSDGGSTVYADSVKGRFTISRDNSKNTLYLQMNSLRAEDTAVYYCTRDGPWYYYAFDVWGQGTTVTVSS
chain 2: DIQMTQSPSSLSASVGDRVTITCQASQDISNYLNWYQQKPGKAPKLLIYDASNLETGVPSRFSGSGSGTDFTFTISSLQPEDIATYYCQQADSFPVTFGGGTKVEIK
B16: the Kd was 692 nM.

B17: unnamed (protein)
chain 1: EVQLLESGGGLVQPGGSLRLSCAASGFTFSSYAMDWVRQAPGKGLEWVSGISSDGGSTVYADSVKGRFTISRDNSKNTLYLQMNSLRAEDTAVYYCARGGPAYYYAFDVWGQGTTVTVSS
chain 2: DIQMTQSPSSLSASVGDRVTITCQASQDISNYLNWYQQKPGKAPKLLIYDASNLETGVPSRFSGSGSGTDFTFTISSLQPEDIATYYCQQADSFPVTFGGGTKVEIK
For the molecule B17, the Kd turned out to be 635 nM.

B18: unnamed (protein)
chain 1: EVQLLESGGGLVQPGGSLRLSCAASGFTFSSYGMDWVRQAPGKGLEWVSGISADGGSTVYADSVKGRFTISRDNSKNTLYLQMNSLRAEDTAVYYCTRGGPAYYYAFDVWGQGTTVTVSS
chain 2: DIQMTQSPSSLSASVGDRVTITCQASQDISNYLNWYQQKPGKAPKLLIYDASNLETGVPSRFSGSGSGTDFTFTISSLQPEDIATYYCQQADSFPVTFGGGTKVEIK
Molecule B18 returned a Kd of 245 nM.

B19: unnamed (protein)
chain 1: EVQLLESGGGLVQPGGSLRLSCAASGFTFSSYAMDWVRQAPGKGLEWVSGISSDGGSTVYADSVKGRFTISRDNSKNTLYLQMNSLRAEDTAVYYCARGGPSYYYAFDVWGQGTTVTVSS
chain 2: DIQMTQSPSSLSASVGDRVTITCQASQDISNYLNWYQQKPGKAPKLLIYDASNLETGVPSRFSGSGSGTDFTFTISSLQPEDIATYYCQQADSFPVTFGGGTKVEIK
In turn, B19 had a Kd of 505 nM.

One may read the Kd as the constant that tells how readily two partners part at equilibrium. Read a high Kd as weaker binding.
